Results published in WO2020228604A1 (dated 2020).

T1: human TROP-2 protein with His tag (TROP-2-His) (human, UniProt P09758 27-274)
T1 construct: Bought reagent (Sino Biological 10428-H08H); also called TROP-2His protein; human TROP-2 His antigen; not shown: His tag
T1 sequence (looked up): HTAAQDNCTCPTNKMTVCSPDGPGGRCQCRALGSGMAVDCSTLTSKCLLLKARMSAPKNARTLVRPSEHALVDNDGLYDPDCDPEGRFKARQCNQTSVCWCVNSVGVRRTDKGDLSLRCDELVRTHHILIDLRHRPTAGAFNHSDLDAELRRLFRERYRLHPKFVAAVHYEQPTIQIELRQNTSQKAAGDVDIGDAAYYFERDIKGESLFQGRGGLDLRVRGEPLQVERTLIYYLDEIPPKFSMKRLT

B1: humanized anti-TROP-2 antibody HU1 (antibody, V domains shown)
VH: QVQLVQSGAEVKKPGSSVKVSCKASGYTFTNYWMNWVRQAPGKGLEWVGRIDPNDSETHYNQKFKDRFTITRDNSKNTLYLQMNSLRAEDTAVYYCARSGFGSTYWFFDVWGQGTTVTVSS
VL: AIRMTQSPFSLSASVGDRVTITCKASQDVSTAVAWYLQKPGQSPQLLIYSASYRYTRIPPRFSGSGYGTDFTLTINNIESEDAAYYFCQQHYSTPLTFGQGTRLEIK
B2: humanized anti-TROP-2 antibody HU10 (antibody, V domains shown)
VH: B1 VH
VL: B1 VL
B3: humanized anti-TROP-2 antibody HU6 (antibody, V domains shown)
VH: EVQLLESGGGLVQPGGSLRLSCAASGFTVSNYWMNWVRQAPGKGLEWMGRIDPNDSETHYNQKFKDRVTISVDKSKNQFSLKLSSVTAADTAVYYCARSGFGSTYWFFDVWGQGTTVTVSS
VL: DVVMTQSPLSLPVTLGQPASISCKASQDVSTAVAWYQQKPGKAPKLFIYSASYRYTGVPSRFSGSGSGTDFTLTISSLQPEDFATYYCQQHYSTPLTFGQGTRLEIK
B4: humanized anti-TROP-2 antibody HU6DL (antibody, V domains shown)
VH: B3 VH
VL: B3 VL
B5: murine monoclonal antibody M1 (antibody, V domains shown)
VH: QVQLQQPGAELVRPGASVKLSCRASGYTFTNYWMNWVKQRPEQGLEWIGRIDPNDSETHYNQKFKDRAILTVDKASNTAYMQLSGLTSEDSAVHYCARSGFGSTYWFFDVWGAGTTVTVSS
VL: DIVMTQSHKFMSTSVGDRVSITCKASQDVSTAVAWYQQKPGQSPKLLIYSASYRYTGVPDRFAGSGYGTDFTFTISSVQTEDLTVYHCQQHYSTPLTFGPGTRLELK

Experiments:
[1] = target: T1, human TROP-2 protein with His tag …; experiment: competition ELISA; competitor: coated hRS7; test antibody diluted to 100 ug/ml and added with TROP-2-His
[2] = target: T1, human TROP-2 protein with His tag …; experiment: indirect ELISA, TROP-2-His coated at 1 ug/ml

Row | Binder | inhibition rate [1] | EC50 [2]
1 | B1 | 13.5% | 
2 | B2 | 10.2% | 
3 | B3 | 6.7% | 
4 | B4 | 5.9% | 
5 | B5 |  | 0.56 nM
